Here are results for four molecules from publication PMC8523169, “Competitive binding of MatP and topoisomerase IV to the MukB hinge domain” (eLife, 2021).

Data set [1] concerns the molecule itself. As to the kind of experiment: native MS; proteins buffer exchanged into 200 mM ammonium acetate pH 8.0, alone or mixed in different ratios (two or three components, with or without 50 bp DNA), 10 min on ice.
Data set [2] deals with T1, MatPΔ18C (1–132), C-terminal 6xHis-tag (E. coli, UniProt P0A8N0 1-132).
T1 construct: MatP, E. coli, residues 1-132 (deletion of the 18 C-terminal residues); also called MatPΔ18C-His; MatP2; source: overexpressed, purified as previously published (Nolivos et al., 2016) with an added SEC step; not shown: His6, C-terminal, kept
T1 sequence (looked up): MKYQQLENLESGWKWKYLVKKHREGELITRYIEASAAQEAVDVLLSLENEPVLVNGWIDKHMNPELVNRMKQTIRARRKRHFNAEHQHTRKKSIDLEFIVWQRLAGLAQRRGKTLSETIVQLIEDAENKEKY
The data set is described as above. To be noted: both partners purified.

Data set [3] concerns the target T2, full-length ParC, N-terminal 6xHis-tag (E. coli, UniProt P0AFI2 1-752).
T2 construct: ParC subunit of topoisomerase IV, E. coli, full length; also called His-ParC; ParC2; source: overexpressed, purified as previously published (Nolivos et al., 2016) with an added SEC step; not shown: His6, N-terminal, kept
T2 sequence (looked up): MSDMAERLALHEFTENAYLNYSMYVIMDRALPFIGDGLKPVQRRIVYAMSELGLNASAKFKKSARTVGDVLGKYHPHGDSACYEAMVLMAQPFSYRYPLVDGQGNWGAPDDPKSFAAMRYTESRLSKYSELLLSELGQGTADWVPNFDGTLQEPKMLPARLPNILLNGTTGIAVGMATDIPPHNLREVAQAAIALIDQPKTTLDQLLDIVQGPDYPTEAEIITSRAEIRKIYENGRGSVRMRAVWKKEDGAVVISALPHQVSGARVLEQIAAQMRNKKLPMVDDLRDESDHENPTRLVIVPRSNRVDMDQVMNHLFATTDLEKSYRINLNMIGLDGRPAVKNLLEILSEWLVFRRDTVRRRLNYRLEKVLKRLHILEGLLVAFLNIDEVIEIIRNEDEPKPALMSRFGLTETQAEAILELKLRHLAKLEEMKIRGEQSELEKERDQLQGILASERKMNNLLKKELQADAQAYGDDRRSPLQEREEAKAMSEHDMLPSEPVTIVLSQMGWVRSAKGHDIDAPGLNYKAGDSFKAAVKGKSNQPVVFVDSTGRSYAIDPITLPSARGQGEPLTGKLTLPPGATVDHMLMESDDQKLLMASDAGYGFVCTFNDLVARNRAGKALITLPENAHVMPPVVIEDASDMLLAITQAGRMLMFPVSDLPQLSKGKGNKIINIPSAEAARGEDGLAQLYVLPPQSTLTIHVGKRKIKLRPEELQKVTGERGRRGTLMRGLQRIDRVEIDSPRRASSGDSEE
Description: SEC; topoIV reconstitution: equimolar ParC and ParE, 30 min on ice, verified in analytical SEC. To be noted: both partners purified.

B1: MatP^4E (K71E, Q72E, R75E, and R77E) (domain or fragment, E. coli, UniProt P0A8N0 1-132, looked up)
chain: MKYQQLENLESGWKWKYLVKKHREGELITRYIEASAAQEAVDVLLSLENEPVLVNGWIDKHMNPELVNRMEETIEAERKRHFNAEHQHTRKKSIDLEFIVWQRLAGLAQRRGKTLSETIVQLIEDAENKEKY
notes: MatP, E. coli, residues 1-132 (MatPΔ18C) with four substitutions; also called MatP K71E, Q72E, R75E, R77E; source: site-directed mutagenesis, purified using the same protocol as MatP
Turning to B1, the stoichiometry N – broadly, a count of units in the complex or per binding partner – in data set [1] worked out at 2.

B2: MukB short hinge (SH; amino acid residues 667–779) (domain or fragment, E. coli, UniProt P22523 667-779, looked up)
chain: GGSEDQRLNALAERFGGVLLSEIYDDVSLEDAPYFSALYGPSRHAIVVPDLSQVTEHLEGLTDCPEDLYLIEGDPQSFDDSVFSVDELEKAVVVKIADRQWRYSRFPEVPLFG
notes: MukB, E. coli, residues 667-779: hinge lacking the entire coiled-coil; Monomer/dimer mix at tens of µM by nMS; also called SH-His; SH MukB; source: overexpressed, purified (TALON, HiTrap Q XL, SEC); not shown: His6, C-terminal, kept
For B2, the binding result in data set [2] is on record as “binds”. Moreover, in data set [1], the “stoichiometry N” value was determined as 2.

B3: ParE-His (enzyme, E. coli, UniProt P20083 1-630, looked up)
chain: MTQTYNADAIEVLTGLEPVRRRPGMYTDTTRPNHLGQEVIDNSVDEALAGHAKRVDVILHADQSLEVIDDGRGMPVDIHPEEGVPAVELILCRLHAGGKFSNKNYQFSGGLHGVGISVVNALSKRVEVNVRRDGQVYNIAFENGEKVQDLQVVGTCGKRNTGTSVHFWPDETFFDSPRFSVSRLTHVLKAKAVLCPGVEITFKDEINNTEQRWCYQDGLNDYLAEAVNGLPTLPEKPFIGNFAGDTEAVDWALLWLPEGGELLTESYVNLIPTMQGGTHVNGLRQGLLDAMREFCEYRNILPRGVKLSAEDIWDRCAYVLSVKMQDPQFAGQTKERLSSRQCAAFVSGVVKDAFILWLNQNVQAAELLAEMAISSAQRRMRAAKKVVRKKLTSGPALPGKLADCTAQDLNRTELFLVEGDSAGGSAKQARDREYQAIMPLKGKILNTWEVSSDEVLASQEVHDISVAIGIDPDSDDLSQLRYGKICILADADSDGLHIATLLCALFVKHFRALVKHGHVYVALPPLYRIDLGKEVYYALTEEEKEGVLEQLKRKKGKPNVQRFKGLGEMNPMQLRETTLDPNTRRLVQLTIDDEDDQRTDAMMDMLLAKKRSEDRRNWLQEKGDMAEIEV
notes: ParE subunit of topoisomerase IV, E. coli; source: overexpressed, purified (TALON, HiTrap Q XL, SEC)
Consider B3, for which, in data set [3], the binding result is recorded as “binds”. Moreover, in data set [1], the “stoichiometry N” value stood at 2.

B4: His-ParC R705E R729A (enzyme, E. coli, UniProt P0AFI2 1-752, looked up)
chain: MSDMAERLALHEFTENAYLNYSMYVIMDRALPFIGDGLKPVQRRIVYAMSELGLNASAKFKKSARTVGDVLGKYHPHGDSACYEAMVLMAQPFSYRYPLVDGQGNWGAPDDPKSFAAMRYTESRLSKYSELLLSELGQGTADWVPNFDGTLQEPKMLPARLPNILLNGTTGIAVGMATDIPPHNLREVAQAAIALIDQPKTTLDQLLDIVQGPDYPTEAEIITSRAEIRKIYENGRGSVRMRAVWKKEDGAVVISALPHQVSGARVLEQIAAQMRNKKLPMVDDLRDESDHENPTRLVIVPRSNRVDMDQVMNHLFATTDLEKSYRINLNMIGLDGRPAVKNLLEILSEWLVFRRDTVRRRLNYRLEKVLKRLHILEGLLVAFLNIDEVIEIIRNEDEPKPALMSRFGLTETQAEAILELKLRHLAKLEEMKIRGEQSELEKERDQLQGILASERKMNNLLKKELQADAQAYGDDRRSPLQEREEAKAMSEHDMLPSEPVTIVLSQMGWVRSAKGHDIDAPGLNYKAGDSFKAAVKGKSNQPVVFVDSTGRSYAIDPITLPSARGQGEPLTGKLTLPPGATVDHMLMESDDQKLLMASDAGYGFVCTFNDLVARNRAGKALITLPENAHVMPPVVIEDASDMLLAITQAGRMLMFPVSDLPQLSKGKGNKIINIPSAEAARGEDGLAQLYVLPPQSTLTIHVGKEKIKLRPEELQKVTGERGRRGTLMAGLQRIDRVEIDSPRRASSGDSEE
notes: ParC, E. coli, full length, with two substitutions; also called ParC^EA; source: site-directed mutagenesis, purified using the same protocol as ParC; not shown: His6, N-terminal, kept
In the case of B4, the “stoichiometry N” value in data set [1] is 2.
